Test results: the Human Domainome abundance scans (Beltran et al. 2025)
± gives the uncertainty stated by the source.

B1: TOX high mobility group box family member 3, residues 256 to 323; numbered along this chain, O15405 (parent)
chain: QKPVSAYALFFRDTQAAIKGQNPNATFGEVSKIVASMWDSLGEEQKQVYKRKTEAAKKEYLKALAAYR
B2: PMS1 protein homolog 1, residues 572 to 637; numbered along this chain, P54277 (parent)
chain: KKPMSASALFVQDHRPQFLIENPKTSLEDATLQIEELWKTLSEEEKLKYEEKATKDLERYNSQMKR

Variants of: B1
Assay: abundance fitness (aPCA) (normalised: wild type 0, dead -1); higher = more abundant; growth selection in yeast, the domain comes from the species named
Settings: Homo sapiens

Abundance fitness, by site and new letter:
I18: W -0.692 ± 0.16; C -0.685 ± 0.16; K -1.18 ± 0.43; T -0.721 ± 0.19; R -0.707 ± 0.12; Y 0.02 ± 0.25; V 0.012 ± 0.057; S -0.682 ± 0.1; D -1.11 ± 0.49; G -0.966 ± 0.18; H -0.902 ± 0.34; E -0.837 ± 0.19; Q -0.833 ± 0.21; F -0.746 ± 0.16; N -0.72 ± 0.41; L -0.396 ± 0.082; P -1.03 ± 0.18; A -0.607 ± 0.13
F11: C -0.302 ± 0.13; W -0.134 ± 0.088; D -0.746 ± 0.15; Q -0.171 ± 0.14; V -0.14 ± 0.07; M -0.101 ± 0.071; P -1.17 ± 0.24; Y -0.278 ± 0.19; G -0.915 ± 0.17; L -0.176 ± 0.069; N -0.19 ± 0.13; A -0.19 ± 0.068; K -0.205 ± 0.091; S -0.264 ± 0.1; R -0.139 ± 0.085; I -0.676 ± 0.43
A16: E 0.158 ± 0.076; N 0.078 ± 0.13; H -0.09 ± 0.17; D 0.068 ± 0.12; R 0.021 ± 0.053; C -0.376 ± 0.086; G -0.209 ± 0.074; S -0.158 ± 0.055; F -0.164 ± 0.11; W -0.324 ± 0.093; M -0.401 ± 0.14; I -0.071 ± 0.15; L -0.178 ± 0.059; K 0.009 ± 0.067; Q -0.133 ± 0.077; T -0.047 ± 0.081; Y -0.564 ± 0.15; P 0.067 ± 0.063
A17: N -0.185 ± 0.16; R 0.083 ± 0.055; W -0.234 ± 0.08; C -0.278 ± 0.14; M -0.169 ± 0.098; H -0.044 ± 0.13; Q -0.004 ± 0.072; E -0.082 ± 0.1; P -0.472 ± 0.1; K 0.196 ± 0.085; V 0.017 ± 0.064; G -0.19 ± 0.079; T 0.035 ± 0.062; L -0.071 ± 0.056; F -0.071 ± 0.075; Y -0.087 ± 0.081; D -0.133 ± 0.12; I -0.012 ± 0.076
Y7: T -0.679 ± 0.11; V -0.651 ± 0.13; L -0.547 ± 0.075; P -0.452 ± 0.16; W -0.462 ± 0.098; S -0.404 ± 0.076; G -0.33 ± 0.07; N 0.007 ± 0.16; K -0.033 ± 0.077; R -0.244 ± 0.042; H -0.199 ± 0.14; E -0.263 ± 0.11; A -0.498 ± 0.14; F -0.339 ± 0.15; C -0.585 ± 0.19; Q -0.212 ± 0.12; I -0.48 ± 0.14
V4: W -0.331 ± 0.063; T -0.073 ± 0.079; R -0.109 ± 0.043; E 0.155 ± 0.064; I 0.091 ± 0.072; N 0.02 ± 0.1; S -0.112 ± 0.057; Q -0.073 ± 0.058; H -0.182 ± 0.081; P -0.001 ± 0.077; C -0.097 ± 0.051; A -0.202 ± 0.079; M 0.159 ± 0.082; G -0.005 ± 0.063; Y -0.24 ± 0.097; F -0.148 ± 0.078
Q1: H 0.119 ± 0.09; N 0.271 ± 0.15; Y 0.123 ± 0.073; W -0.282 ± 0.11; K 0.247 ± 0.15; M 0.137 ± 0.13; C -0.362 ± 0.14; T 0.012 ± 0.094; R -0.087 ± 0.06; F -0.088 ± 0.13; L -0.124 ± 0.072; S -0.386 ± 0.16; G 0.107 ± 0.088; A -0.474 ± 0.16; I -0.035 ± 0.11
A8: F -0.33 ± 0.18; T -0.196 ± 0.11; G -0.179 ± 0.17; R -0.027 ± 0.044; W -0.252 ± 0.098; H 0.136 ± 0.17; P -0.464 ± 0.12; L -0.235 ± 0.065; M 0.219 ± 0.056; D 0.039 ± 0.15; Y -0.458 ± 0.24; E -0.376 ± 0.18; I -0.477 ± 0.19; S 0.002 ± 0.065; K 0.009 ± 0.074; V -0.123 ± 0.056; C 0.163 ± 0.097; Q 0.09 ± 0.081
K19: H -0.197 ± 0.094; R -0.102 ± 0.06; M 0.027 ± 0.083; I -0.179 ± 0.058; P -1.03 ± 0.18; L -0.166 ± 0.05; S -0.127 ± 0.06; W -0.519 ± 0.24; F -0.139 ± 0.099; D -1.13 ± 0.33; E -0.256 ± 0.21; N -0.557 ± 0.12; A -0.051 ± 0.063; Q 0.069 ± 0.066; V -0.122 ± 0.056; Y -0.151 ± 0.11; T -0.221 ± 0.063
D13: A -0.259 ± 0.12; K -0.646 ± 0.18; I -0.442 ± 0.095; H -0.235 ± 0.12; C -0.314 ± 0.091; V -0.344 ± 0.074; G -0.855 ± 0.22; S -0.516 ± 0.092; N -0.462 ± 0.13; T -0.247 ± 0.089; F -0.494 ± 0.12; E 0.11 ± 0.08
K2: T -0.294 ± 0.081; H -0.012 ± 0.12; Q -0.337 ± 0.14; V -0.201 ± 0.059; W -0.781 ± 0.15; P -0.267 ± 0.085; I -0.003 ± 0.043; R -0.273 ± 0.064; E -0.464 ± 0.11; S 0.069 ± 0.05; G -0.344 ± 0.05; A -0.264 ± 0.076; F -0.083 ± 0.13; M -0.335 ± 0.083; L -0.428 ± 0.066; C -0.434 ± 0.13; N -0.005 ± 0.1; D -0.311 ± 0.14
T14: F -0.99 ± 0.34; P -0.62 ± 0.12; R -0.03 ± 0.065; S 0.087 ± 0.077; C -0.781 ± 0.29; E -0.292 ± 0.057; N -0.278 ± 0.14; I -0.326 ± 0.12; L -0.314 ± 0.064; G -0.709 ± 0.11; D -0.704 ± 0.17; A -0.29 ± 0.11; H -0.453 ± 0.34; Q 0.146 ± 0.096; M 0.048 ± 0.084; W -0.364 ± 0.067; K 0.066 ± 0.077; V -0.147 ± 0.062
L9: F -0.31 ± 0.11; K -0.425 ± 0.13; S 0.077 ± 0.091; N -0.705 ± 0.41; E 0.262 ± 0.16; D -0.217 ± 0.29; G -0.303 ± 0.083; W -0.218 ± 0.11; Q 0.053 ± 0.073; P -1.08 ± 0.39; R -0.498 ± 0.1; M -0.035 ± 0.081; I 0.233 ± 0.13; H -0.394 ± 0.19; V -0.224 ± 0.077; A -0.042 ± 0.064; T -0.039 ± 0.084; C -0.106 ± 0.1
A6: Y -0.34 ± 0.17; H -0.597 ± 0.37; W -0.848 ± 0.13; E 0.156 ± 0.16; I -0.833 ± 0.37; F -0.661 ± 0.16; V -0.601 ± 0.084; Q -0.185 ± 0.17; R -0.808 ± 0.1; P 0.054 ± 0.059; C -0.372 ± 0.17; L -0.37 ± 0.086; T -0.6 ± 0.18; S -0.075 ± 0.092; M -0.316 ± 0.1; G -0.168 ± 0.079
Q15: W -0.194 ± 0.075; Y 0.367 ± 0.34; P -1.08 ± 0.19; R -0.309 ± 0.072; I 0.027 ± 0.27; N -0.212 ± 0.3; L -0.13 ± 0.084; V -0.173 ± 0.057; C -0.178 ± 0.2; E -0.065 ± 0.066; H -0.084 ± 0.14; K -0.109 ± 0.091; A -0.512 ± 0.15; S -0.538 ± 0.18; M -0.068 ± 0.078; F 0.022 ± 0.086; G -0.6 ± 0.12
S5: K -0.166 ± 0.14; W -0.491 ± 0.14; R -0.348 ± 0.08; Q -0.527 ± 0.28; N 0.115 ± 0.16; V -0.693 ± 0.1; P -0.458 ± 0.11; D 0.101 ± 0.074; C -0.074 ± 0.11; I -0.94 ± 0.39; E -0.022 ± 0.066; A -0.314 ± 0.066; G -0.091 ± 0.052
R12: Y -0.135 ± 0.19; M -0.052 ± 0.063; E 0.054 ± 0.1; H 0.062 ± 0.15; W -0.587 ± 0.12; T -0.146 ± 0.11; P -1 ± 0.23; C -0.457 ± 0.16; G -0.223 ± 0.067; A -0.116 ± 0.078; K 0.022 ± 0.12; V -0.433 ± 0.1; I -0.221 ± 0.11; N 0.168 ± 0.093; S -0.113 ± 0.064; D -0.526 ± 0.23; Q -0.057 ± 0.094
F10: N -0.916 ± 0.45; Q -0.71 ± 0.19; D -0.752 ± 0.23; G -0.957 ± 0.14; P -0.572 ± 0.28; T -0.53 ± 0.11; S -0.267 ± 0.15; K -0.946 ± 0.17; I -0.98 ± 0.34; R -0.751 ± 0.1; Y 0.047 ± 0.12; W -0.957 ± 0.2; A -0.981 ± 0.31; L -0.744 ± 0.1; E -0.635 ± 0.12
P3: L -0.145 ± 0.045; C -0.342 ± 0.076; V -0.14 ± 0.088; S -0.052 ± 0.046; K -0.035 ± 0.072; N -0.163 ± 0.083; Q -0.292 ± 0.096; F 0.125 ± 0.081; M -0.296 ± 0.096; G 0.033 ± 0.049; E -0.199 ± 0.2; R -0.157 ± 0.053; T -0.142 ± 0.062; H -0.068 ± 0.059; Y -0.332 ± 0.12; I -0.228 ± 0.096; A -0.213 ± 0.057; D 0.375 ± 0.15
G20: A 0.129 ± 0.051; Q 0.224 ± 0.066; V 0.039 ± 0.05; L 0.145 ± 0.052; F -0.073 ± 0.11; P -0.327 ± 0.12; H 0.013 ± 0.13; S 0.1 ± 0.047; E 0.085 ± 0.16; T 0.038 ± 0.086; I -0.01 ± 0.099; D 0.192 ± 0.11; C -0.116 ± 0.061; K -0.129 ± 0.11; M -0.222 ± 0.18

Variants of: B2
Assay: as above
Settings: Homo sapiens

Abundance fitness of substitutions, site by site:
R66: Y -0.069 ± 0.13; W -0.261 ± 0.17; T 0.019 ± 0.12; V 0.097 ± 0.069
